One may read the Kd as a measure of binding affinity in units of concentration. Lower therefore signals higher affinity.

T1: soluble human ASGR-1 carbohydrate binding domain (CBD; amino acid residues 154-281; N-terminal 6xHis tag) (human, UniProt P07306 154-281)
T1 construct: also called ASGR-1 CBD
T1 sequence: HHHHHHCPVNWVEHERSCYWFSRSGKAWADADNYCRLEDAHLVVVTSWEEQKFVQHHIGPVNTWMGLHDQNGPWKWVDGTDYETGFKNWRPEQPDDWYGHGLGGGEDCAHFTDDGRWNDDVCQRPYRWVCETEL

B1: 193E7 (antibody, V domains shown)
VH: QVQLQQWGAGLLKPSETLSLTCAVYGGSFSGYFWTWIRQPPGKGLEWIGEINHSGSTNYNPSLKSRVTISVDTSKNQFSLKLSSVTAADTAVYYCARDYGADYWGQGTLVAVSA
VL: DIQMTQSPSSLSASVGDRVTITCRASQGIRNDLGWYQQKPGKAPKRLIYSASSLQRGVPSRFSGSGSGTEFTLTISSLQPEDFATYYCLQHKRYPLTFGGGTKVEIK
notes: mAb
B2: 194C10 (antibody, V domains shown)
VH: QVQLQQWGAGLLKPSETLSLTCAVSGGSFRYYYWSWIRQPPGKGLEWFGEINHSGSTNYNPSLKSRVTISIDTSKNQFSLKLRSVTAADTAVYYCARDYGAFDIWGQGTMVTVSS
VL: EIVLTQSPGTLSLSPGERATLSCRASPSVNSGYLAWYQQKPGQTPRLLIFGASSRATGIPDRFSASGSGADFTLTISRLEPEDFAVYFCQQYESSPWTFGQGTKVEIK
notes: mAb
B3: 72G9 (antibody, V domains shown)
VH: EVQLVESGGGLVKPGGSLRLSCAASGFTFSSYSMNWVRQAPGKGLEWVSSISGSSSYIYYADSVKGRFTISRDNAKNSLYLQMNSLRAEDTAVYFCARGGSRGFDPWGQGTLVTVSS
VL: DIQMTQSPSSLSASVGDRVTITCRASQSITSYLNWYQQKPGKAPKLLIYTASSLQSGVPSRFSGSGSGTDFTLTISSLQPEDFATYYCQQSHSFPFTFGPGTKVDIK
notes: mAb
B4: 184E7 (antibody, V domains shown)
VH: QVQLVQSGAEVKTPGASVKVSCRASGYTFTSYNMHWVRQVPGQGLEWMGWINPNNGGSNYTQKFQGRVTMTRDTSISTAYMELSRLRSDDTAVYYCARKFGDWGQGTLVTVSS
VL: DIQMTQSPSSRSASIGERVTITCRASQGISNYLAWIQQKPGTAPKSLIYAASSLQSGVSSRFSGSGFGTDFTITISSVQREDFATYYCQQYNGYPFTFGHGTKVDIK
notes: mAb
B5: 190F8 (antibody, V domains shown)
VH: QVQLVESGGGVVQPGRSLRLSCAASGFTFSTYGMHWVRQAPGKGLEWVAVIWYDGSNKNYADSVKGRFTISRDNSKNTLYLQMNSLRAEDTAVYYCARDQGVGYDGLDVWGQGTTVTVSS
VL: DIQMTQSPSSLSASVGDRVTITCRTSQGIGNYLAWFQQKPGKAPKSLLYKASSLQSGVPSKFSGSGSGTDFTLTISSLQPEDFATYYCQQYMTYPLTFGGGTKVEIK
notes: mAb
B6: 194C1 (antibody, V domains shown)
VH: QVQLVESGGGVVQPGRSLRLSCAASGFTFSSYGMHWVRQAPGKGLEWVAVIWYDGSNEHYADSVKGRFTISRDNSKNTLYLQMNSLRAEDTAVYYCARNRGVGYYGLDVWGQGTTVTVSS
VL: DIQMTQSPSSLSASVGDRVTITCRASQGISNYLAWFQQKPGKAPKSLIYAASSLQSGVPSKFSGSGSGTDFTLTISSLQPEDFATYYCLHYLTYPLTFGGGTKVEIK
notes: mAb
B7: 197G3 (antibody, V domains shown)
VH: QVQLVESGGGVVQPGRSLRLSCVASGFTFSSHGMHWVRQAPGKGLEWVAVIWYDGSNKNYADSVKGRFTISRDNSKNTLYLQMNSLRAEDTAVYYCARDPSVGYDGMDVWGQGTTVTVSS
VL: DIQMTQSPSSLSASVGDRVTITCRASQGIGNHLAWFQQKPGKAPKSLIYAASSLQSGVPSKFSGSRSGTDFSLTISSLQPEDFATYYCQQYSNYPVTFGPGTKVDIK
notes: mAb
B8: 191G1 (antibody, V domains shown)
VH: QVQLVESGGGVVQPGRSLRLSCAASGFTFSSYGMHWVRQAPGKGLEWVAVIWYDGSNEHYADSVKGRFTISRDNSKNTLYLQMNSLRAEDTAVYYCARDRGVGYYGLDVWGQGTTVTVSS
VL: DIQMTQSPSSLSASVGDRVTITCRASQGISNYLAWFQQKPGKAPKSLIYAASSLQSGVPSKFSGSGSGTDFTLTISSLQPEDFATYYCQHYLTYPLTFGGGTKVEIK
notes: mAb
B9: 198G3 (antibody, V domains shown)
VH: QVQLVESGGGVVQPGRSLKLSCAASGFTFSTYGMHWVRQAPGKGLEWVAVIWYDGTNKNYADSVKGRFTISRDNSKNTLCLQMNSLRAEDTAVYYCARDQGVGYDGLDVWGQGTTVTVSS
VL: DIQMAQSPSSLSASVGDRVTITCRTSQGIGKYLAWFQQKPGKAPKSLLYKASSLQGGVPSKFSGSGSGTDFTLTISSLQPEDFATYYCQQYMTYPLTFGGGTKVEIK
notes: mAb
B10: 191G10 (antibody, V domains shown)
VH: QVQLVESGGGVVQPGRSLRLSCAASGFTFSSYGMHWVRQAPGKGLEWVAVIWYDGSNKNYADSVKGRFTISRDNSKNTLYLQMNSLRAEDTAVYYCARDQGVGYDGLDVWGQGTTVTVSS
VL: DIQMTQSPSSLSASVGDRVTITCRTSQGIGKYLAWFQQKPGKAPKSLLYKVSSLQSGVPSKFSGSGSGTDFTLTISSLQPEDFATYYCQQYMTYPLTFGGGTKVEIK
notes: mAb
B11: 75G3 (antibody, V domains shown)
VH: QVQLQQWGAGLLKPSETLSLTCAVYGGSLSGSYWSWIRQPPGKGLEWIGEINLSGSTNYNPSLKSRVTISVDTSKSQFSLTLRSVTAADTAVYYCARDYGGLDYWGQGTLVTVSS
VL: EIVLTQSPGTLSLSPGERATLSCRARQNVDSSYLAWYQQKPGQAPRLLIYGASSRATGIPDRFSGSGSGTDFTLTISRLEPEDFAVFYCQQYERSPWTFGQGTKVEIK
notes: mAb
B12: 176H4 (antibody, V domains shown)
VH: QVQLVESGGGVVQPGRSLRLSCAASGFTFSSYGMHWVRQAPGKGLEWVAIIWYDGSYKYYADSVKGRFTISRDNSKNTLYLQMSSLRAEDTAVYYCARDAHDFWSGYFAYWGQGALVTVSS
VL: DIVMTQTPLSLSVTPGQPASISCKSSQSLLHGDGKTYLYWYLQKPGQPPQLLIYEVSNRFSGVPDRFSGSGSGTDFTLKISRVEAEDVGIYYCMQSIQIPWTFGQGTRVEIK
notes: mAb
B13: 194A4 (antibody, V domains shown)
VH: QVQLVQSGTEVKKPGASLKVSCKASGYTFTVYYLNWVRQAPGQGLEWMGWINPNSGGTNYAQKFQGRVTMTRDTSISTAYMELSRLRSDDTAVYYCARGYDILTGWGQGTLVTVSS
VL: EIVLTQSPGTLSLSPGERATLSCRASRGVSNIYLAWYQQKPGQAPRLLIYGASNRATGIPDRFSGSGSGTDFTLTISRLEPEDFAVYYCQHNDYSMFTFGPGTKVDIK
notes: mAb
B14: 218G4 (antibody, V domains shown)
VH: QVQLVESGGGVVQPGRSLRLSCAASGFTFSSYGLHWVRQAPGKGLEWVAVIWYDGSNKYYADSVKGRFTISRDNSKNTLYLQMNSLRVEDTAVYYCANWYYYYYGMDVWGQGTTVTVSS
VL: QSVLTQPPSVSAAPGQKVTISCSGSSSNIGNNYVSWYQQLPGTAPKLLLYDSNKRPSGIPARFSGSKSGTSATLGITGLQTGDEADYYCGTWDSSLNTVVFGGGTKLTVL
notes: mAb

The assay deals with T1, soluble human ASGR-1 carbohydrate …. Description: Octet BLI, mAb on AR2G tips, 1:1 fit. From the text: To quantitate the binding affinity of specific antibodies for ASGR-1 (either purified from hybridoma supernatants or made recombinantly), association and dissociation rates can be measured using a ForteBio Octet instrument. […] Experimental kinetic results were globally fit to a 1:1 binding model in order to determine the association and dissociation rate constants as well as the equilibrium dissociation constant. Association and dissociation times were chosen to ensure that curvature was present during association curves and measured dissociation levels dropped at least 5% from starting levels. All Octet buffers contained 10 mM Tris (pH7.5), 150 mM NaCl, 1 mM CaCl₂), 0.10 mg/ml BSA and 0.13% Triton X-100. Octet assays were run at 27° C. Because this assay only measures binding to the ASGR-1 CBD, antibodies that recognize epitopes partially or entirely outside the CBD and/or recognize ASGR-1 in the context of a native ASGR complex, for example, as could occur on cell membranes, may not score as positive in this assay.
In general terms: In BLI a coated tip is dipped into the sample, and binding shifts an interference pattern.
In turn, B1 displayed a dissociation constant (Kd) of 3.5 nM. This counts as single-digit nanomolar.

Regarding B2, binding was characterised by a dissociation constant (Kd) of 4 nM. This Kd and that of the molecule before are within 1.5-fold of each other.

B3 displayed a Kd of 0.5 nM.

B4 registered a Kd of 0.3 nM.

Regarding B5, the affinity, expressed as Kd, was 0.6 nM.

The molecule B6 gave a Kd of 1.3 nM.

On to B7, for which the Kd turned out to be 0.8 nM.

For the molecule B8, the Kd stood at 2.4 nM.

As to B9, the dissociation constant (Kd) stood at 0.04 nM.

B10 yielded a dissociation constant Kd of 0.5 nM.

For the molecule B11, the Kd was 1 nM.

On to B12, for which the affinity, expressed as Kd, was 0.8 nM. The Kd values of the last two molecules are within 1.5-fold of each other.

Consider B13, for which the affinity, expressed as Kd, was 0.7 nM.

As to B14, the Kd was determined as 2.6 nM.

The values above are taken from US20190248902A1 (published 2019).
